Paper PMC8288147

Biological target: Hepatitis B Surface Antigen (HBsAg) SpyCatcher nanoparticles (Hepatitis B virus)
Assay: covalent SpyTag/SpyCatcher conjugation shown by reduced SDS-PAGE

Substance “RBD-SpyTag (SARS-CoV-2 receptor binding domain fused to the SpyTag peptide) (from UniProt P0DTC2) (domain or fragment)” has a fraction unconjugated of less than 20%.
